Data from patent US20230157952A1, “METHOD FOR IMPROVING THE STABILITY OF A PHARMACEUTICAL COMPOSITION COMPRISING A HIGH PENETRATION DRUG, AND THE PHARMACEUTICAL COMPOSITION OBTAINED THEREFROM” (Techfields Inc., priority 2020, published 2023).
Values belong to the molecule of their own block, whether it stands above or below them.

Experiment: Effect of pH value on the stability of the solution (purity)
Assay type: physicochemical
Details: for Purity(%) from day 0-14 / Purity(%) from day 0-28: 25° C.; for Purity(%) at day 1 / Purity(%) at day 30 / Purity(%) at day 90 / Purity(%) at day 180 / Purity(%) at day 360: 5% solution
[1] = 25% ethanol (after multiple recrystalization), pH 3.7, 25° C.
[2] = 25% ethanol with 0.5 equivalent sodium acetate, pH 3.7, 25° C.
[3] = 25% ethanol with 1 equivalent sodium acetate, pH 4.6, 25° C.
[4] = 25% ethanol with 1.5 equivalent sodium acetate, pH 5.6, 25° C.
[5] = 25% ethanol with HCl, pH 2.0, 25° C.
[6] = 25% ethanol with NaOH, pH 7, 25° C.
[7] = 25% ethanol with NaOH, pH 8, 25° C.

Molecule: CCN(CC)CCOC(=O)c1ccccc1OC(C)=O.O=C(O)/C=C\C(=O)O [A-1, 2-(diethylamino)ethyl acetylsalicylate•maleic acid salt]
- Purity(%) from day 0-14 (day 14, pH 1.0, 7% in water): 59.1 ± 0.4%
- Purity(%) from day 0-14 (day 14, pH 2.0, 7% in water): 78.8 ± 0.3%
- Purity(%) from day 0-14 (day 14, pH 3.0, 7% in water): 90.9 ± 0.2%
- Purity(%) from day 0-14 (day 14, pH 3.7, 7% in water): 94.0 ± 0.3%
- Purity(%) from day 0-14 (day 14, pH 4.0, 7% in water): 94.5 ± 0.2%
- Purity(%) from day 0-14 (day 14, pH 4.3, 7% in water): 94.6 ± 0.3%
- Purity(%) from day 0-14 (day 14, pH 4.6, 7% in water): 94.3 ± 0.2%
- Purity(%) from day 0-14 (day 14, pH 5.0, 7% in water): 86.9 ± 0.3%
- Purity(%) from day 0-14 (day 14, pH 6.0, 7% in water): 78.9 ± 0.3%
- Purity(%) from day 0-14 (day 14, pH 7.0, 7% in water): 57.8 ± 0.4%
- Purity(%) from day 0-14 (day 14, pH 8.0, 7% in water): 16.1 ± 0.4%

- Purity(%) from day 0-28 (day 0, pH 1.0, 7% in 25% ethanol): 98.0 ± 0.3%
- Purity(%) from day 0-28 (day 0, pH 2.0, 7% in 25% ethanol): 98.2 ± 0.4%
- Purity(%) from day 0-28 (day 0, pH 3.0, 7% in 25% ethanol): 98.5 ± 0.3%
- Purity(%) from day 0-28 (day 0, pH 3.7, 7% in 25% ethanol): 98.6 ± 0.4%
- Purity(%) from day 0-28 (day 0, pH 4.0, 7% in 25% ethanol): 98.6 ± 0.3%
- Purity(%) from day 0-28 (day 0, pH 4.3, 7% in 25% ethanol): 98.7 ± 0.2%
- Purity(%) from day 0-28 (day 0, pH 4.6, 7% in 25% ethanol): 98.6 ± 0.3%
- Purity(%) from day 0-28 (day 0, pH 5.0, 7% in 25% ethanol): 98.5 ± 0.4%
- Purity(%) from day 0-28 (day 0, pH 6.0, 7% in 25% ethanol): 98.4 ± 0.5%
- Purity(%) from day 0-28 (day 0, pH 7.0, 7% in 25% ethanol): 98.1 ± 0.5%
- Purity(%) from day 0-28 (day 0, pH 8.0, 7% in 25% ethanol): 97.9 ± 0.5%
- Purity(%) from day 0-28 (day 28, pH 1.0, 7% in 25% ethanol): 68.3 ± 0.2%
- Purity(%) from day 0-28 (day 28, pH 2.0, 7% in 25% ethanol): 87.7 ± 0.3%
- Purity(%) from day 0-28 (day 28, pH 3.0, 7% in 25% ethanol): 87.7 ± 0.2%
- Purity(%) from day 0-28 (day 28, pH 3.7, 7% in 25% ethanol): 95.5 ± 0.3%
- Purity(%) from day 0-28 (day 28, pH 4.0, 7% in 25% ethanol): 96.3 ± 0.3%
- Purity(%) from day 0-28 (day 28, pH 4.3, 7% in 25% ethanol): 96.4 ± 0.2%
- Purity(%) from day 0-28 (day 28, pH 4.6, 7% in 25% ethanol): 96.4 ± 0.3%
- Purity(%) from day 0-28 (day 28, pH 5.0, 7% in 25% ethanol): 88.6 ± 0.3%
- Purity(%) from day 0-28 (day 28, pH 6.0, 7% in 25% ethanol): 89.0 ± 0.4%
- Purity(%) from day 0-28 (day 28, pH 7.0, 7% in 25% ethanol): 48.1 ± 0.3%
- Purity(%) from day 0-28 (day 28, pH 8.0, 7% in 25% ethanol): 34.4 ± 0.4%
Molecule: CC(C)Cc1ccc([C@@H](C)C(=O)OCCN2CCCC2)cc1.Cl (racemic) [C-9, 1-pyrrolidineethyl (R,S)-2-(p-isobutylphenyl)propionate•HCl salt]

Molecule: H-Tyr-Gly-Gly-Phe-Met-OCH(CH3)2•HCl salt
- Purity(%) at day 1 [1]: 98.9 ± 0.2%
- Purity(%) at day 30 [1]: 98.3 ± 0.2%
- Purity(%) at day 90 [1]: 97.2 ± 0.1%
- Purity(%) at day 180 [1]: 95.4 ± 0.1%
- Purity(%) at day 360 [1]: 92.3 ± 0.2%
- Purity(%) at day 1 [2]: 98.9 ± 0.1%
- Purity(%) at day 30 [2]: 98.4 ± 0.1%
- Purity(%) at day 90 [2]: 97.3 ± 0.2%
- Purity(%) at day 180 [2]: 95.5 ± 0.2%
- Purity(%) at day 360 [2]: 92.5 ± 0.2%
- Purity(%) at day 1 [3]: 98.9 ± 0.2%
- Purity(%) at day 30 [3]: 98.4 ± 0.2%
- Purity(%) at day 90 [3]: 97.4 ± 0.2%
- Purity(%) at day 180 [3]: 95.5 ± 0.2%
- Purity(%) at day 360 [3]: 92.4 ± 0.2%
- Purity(%) at day 1 [4]: 98.8 ± 0.2%
- Purity(%) at day 30 [4]: 97.2 ± 0.2%
- Purity(%) at day 90 [4]: 94.1 ± 0.1%
- Purity(%) at day 180 [4]: 88.7 ± 0.2%
- Purity(%) at day 360 [4]: 81.1 ± 0.3%
- Purity(%) at day 1 [5]: 98.5 ± 0.1%
- Purity(%) at day 30 [5]: 92.1 ± 0.2%
- Purity(%) at day 90 [5]: 85.1 ± 0.2%
- Purity(%) at day 180 [5]: 71.9 ± 0.2%
- Purity(%) at day 360 [5]: 51.8 ± 0.2%
- Purity(%) at day 1 [6]: 98.5 ± 0.3%
- Purity(%) at day 30 [6]: 77.9 ± 0.2%
- Purity(%) at day 90 [6]: 43.6 ± 0.2%
- Purity(%) at day 180 [6]: 24.3 ± 0.3%
- Purity(%) at day 360 [6]: 0%
- Purity(%) at day 1 [7]: 98.2 ± 0.2%
- Purity(%) at day 30 [7]: 56.2 ± 0.2%
- Purity(%) at day 90 [7]: 33.3 ± 0.3%
- Purity(%) at day 180 [7]: 5.8 ± 0.3%
- Purity(%) at day 360 [7]: 0%
- Purity(%) at day 1 (25% ethanol, pH 3.0, 25° C.): 98.7 ± 0.2%
- Purity(%) at day 30 (25% ethanol, pH 3.0, 25° C.): 97.9 ± 0.2%
- Purity(%) at day 90 (25% ethanol, pH 3.0, 25° C.): 95.1 ± 0.1%
- Purity(%) at day 180 (25% ethanol, pH 3.0, 25° C.): 90.9 ± 0.2%
- Purity(%) at day 360 (25% ethanol, pH 3.0, 25° C.): 82.8 ± 0.3%
